{"source": "patent US7662583B2", "about": "“Bioreactor containing cells expressing glycosyltransferase nucleic acids isolatable from Arabidopsis” (The University of York, priority 2003, dated 2010)", "molecules": {"B1": {"name": "UGT71C2: Arabidopsis recombinant glycosyltransferase (protein, UniProt O82382 1-474, looked up)", "UDP-glycosyltransferase 71C2": "MAKQQEAELIFIPFPIPGHILATIELAKRLISHQPSRIHTITILHWSLPFLPQSDTIAFLKSLIETESRIRLITLPDVQNPPPMELFVKASESYILEYVKKMVPLVRNALSTLLSSRDESDSVHVAGLVLDFFCVPLIDVGNEFNLPSYIFLTCSASFLGMMKYLLERNRETKPELNRSSDEETISVPGFVNSVPVKVLPPGLFTTESYEAWVEMAERFPEAKGILVNSFESLERNAFDYFDRRPDNYPPVYPIGPILCSNDRPNLDLSERDRILKWLDDQPESSVVFLCFGSLKSLAASQIKEIAQALELVGIRFLWSIRTDPKEYASPNEILPDGFMNRVMGLGLVCGWAPQVEILAHKAIGGFVSHCGWNSILESLRFGVPIATWPMYAEQQLNAFTIVKELGLALEMRLDYVSEYGEIVKADEIAGAVRSLMDGEDVPRRKLKEIAEAGKEAVMDGGSSFVAVKRFIDGL"}, "B2": {"name": "UGT73B5: Arabidopsis recombinant glycosyltransferase (protein, UniProt Q9ZQG4 1-484, looked up)", "UDP-glycosyltransferase 73B5": "MNREVSERIHILFFPFMAQGHMIPILDMAKLFSRRGAKSTLLTTPINAKIFEKPIEAFKNQNPDLEIGIKIFNFPCVELGLPEGCENADFINSYQKSDSGDLFLKFLFSTKYMKQQLESFIETTKPSALVADMFFPWATESAEKLGVPRLVFHGTSFFSLCCSYNMRIHKPHKKVATSSTPFVIPGLPGDIVITEDQANVAKEETPMGKFMKEVRESETNSFGVLVNSFYELESAYADFYRSFVAKRAWHIGPLSLSNRELGEKARRGKKANIDEQECLKWLDSKTPGSVVYLSFGSGTNFTNDQLLEIAFGLEGSGQSFIWVVRKNENQGDNEEWLPEGFKERTTGKGLIIPGWAPQVLILDHKAIGGFVTHCGWNSAIEGIAAGLPMVTWPMGAEQFYNEKLLTKVLRIGVNVGATELVKKGKLISRAQVEKAVREVIGGEKAEERRLWAKKLGEMAKAAVEEGGSSYNDVNKFMEELNGRK"}, "B3": {"name": "UGT76E1: Arabidopsis recombinant glycosyltransferase (protein, UniProt Q9LTH3 1-453, looked up)", "UDP-glycosyltransferase 76E1": "MEELGVKRRIVLVPVPAQGHVTPIMQLGKALYSKGFSITVVLTQYNRVSSSKDFSDFHFLTIPGSLTESDLKNLGPFKFLFKLNQICEASFKQCIGQLLQEQGNDIACVVYDEYMYFSQAAVKEFQLPSVLFSTTSATAFVCRSVLSRVNAESFLLDMKDPKVSDKEFPGLHPLRYKDLPTSAFGPLESILKVYSETVNIRTASAVIINSTSCLESSSLAWLQKQLQVPVYPIGPLHIAASAPSSLLEEDRSCLEWLNKQKIGSVIYISLGSLALMETKDMLEMAWGLRNSNQPFLWVIRPGSIPGSEWTESLPEEFSRLVSERGYIVKWAPQIEVLRHPAVGGFWSHCGWNSTLESIGEGVPMICRPFTGDQKVNARYLERVWRIGVQLEGELDKGTVERAVERLIMDEEGAEMRKRVINLKEKLQASVKSRGSSFSSLDNFVNSLKMMNFM"}, "B4": {"name": "UGT73C6: Arabidopsis recombinant glycosyltransferase (protein, UniProt Q9ZQ95 1-495, looked up)", "UDP-glycosyltransferase 73C6": "MAFEKNNEPFPLHFVLFPFMAQGHMIPMVDIARLLAQRGVLITIVTTPHNAARFKNVLNRAIESGLPINLVQVKFPYQEAGLQEGQENMDLLTTMEQITSFFKAVNLLKEPVQNLIEEMSPRPSCLISDMCLSYTSEIAKKFKIPKILFHGMGCFCLLCVNVLRKNREILDNLKSDKEYFIVPYFPDRVEFTRPQVPVETYVPAGWKEILEDMVEADKTSYGVIVNSFQELEPAYAKDFKEARSGKAWTIGPVSLCNKVGVDKAERGNKSDIDQDECLEWLDSKEPGSVLYVCLGSICNLPLSQLLELGLGLEESQRPFIWVIRGWEKYKELVEWFSESGFEDRIQDRGLLIKGWSPQMLILSHPSVGGFLTHCGWNSTLEGITAGLPMLTWPLFADQFCNEKLVVQILKVGVSAEVKEVMKWGEEEKIGVLVDKEGVKKAVEELMGESDDAKERRRRAKELGESAHKAVEEGGSSHSNITFLLQDIMQLAQSNN"}, "B5": {"name": "UGT71E8: Arabidopsis recombinant glycosyltransferase as printed in Table 1A; probably UGT71B8 of FIG. 1 (protein, UniProt Q9LSY4 1-480, looked up)", "UDP-glycosyltransferase 71B8": "MNKFALVFVPFPILGHLKSTAEMAKLLVEQETRLSISIIILPLLSGDDVSASAYISALSAASNDRLHYEVISDGDQPTVGLHVDNHIPMVKRTVAKLVDDYSRRPDSPRLAGLVVDMFCISVIDVANEVSVPCYLFYTSNVGILALGLHIQMLFDKKEYSVSETDFEDSEVVLDVPSLTCPYPVKCLPYGLATKEWLPMYLNQGRRFREMKGILVNTFAELEPYALESLHSSGDTPRAYPVGPLLHLENHVDGSKDEKGSDILRWLDEQPPKSVVFLCFGSIGGFNEEQAREMAIALERSGHRFLWSLRRASRDIDKELPGEFKNLEEILPEGFFDRTKDKGKVIGWAPQVAVLAKPAIGGFVTHCGWNSILESLWFGVPIAPWPLYAEQKFNAFVMVEELGLAVKIRKYWRGDQLVGTATVIVTAEEIERGIRCLMEQDSDVRNRVKEMSKKCHMALKDGGSSQSALKLFIQDVTKYIA"}, "B6": {"name": "UGT88A1: Arabidopsis recombinant glycosyltransferase, FIG. 4 (protein, listed as Arabidopsis thaliana)", "chain": "MGEEAIVLYPAPPIGHLVSMVELGKTILSKNPSLSIHIILVPPPYQPESTATYISSVSSSFPSITFHHLPAVTPYSSSSTSRHHHESLLLEILCFSNPSVHRTLFSLSRNFNVRAMIIDFFCTAVLDITADFTFPVYFFYTSGAACLAFSFYLPTIDETTPGKNLKDIPTVHIPGVPPMKGSDMPKAVLERDDEVYDVFIMFGKQLSKSSGIIINTFDALENRAIKAITEELCFRNIYPIGPLIVNGRIEDRNDNKAVSCLNWLDSQPEKSVVFLCFGSLGLFSKEQVIEIAVGLEKSGQRFLWVVRNPPELEKTELDLKSLLPEGFLSRTEDKGMVVKSWAPQVPVLNHKAVGGFVTHCGWNSILEAVCAGVPMVAWPLYAEQRFNRVMIVDEIKIAISMNESETGFVSSTEVEKRVQEIIGECPVRERTMAMKNAAELALTETGSSHTALTTLLQSWSPK"}, "B7": {"name": "UGT76E11: Arabidopsis recombinant glycosyltransferase (protein, UniProt Q9SNB1 1-451, looked up)", "UDP-glycosyltransferase 76E11": "MEEKPAGRRVVLVAVPAQGHISPIMQLAKTLHLKGFSITIAQTKFNYFSPSDDFTDFQFVTIPESLPESDFEDLGPIEFLHKLNKECQVSFKDCLGQLLLQQGNEIACVVYDEFMYFAEAAAKEFKLPNVIFSTTSATAFVCRSAFDKLYANSILTPLKEPKGQQNELVPEFHPLRCKDFPVSHWASLESMMELYRNTVDKRTASSVIINTASCLESSSLSRLQQQLQIPVYPIGPLHLVASASTSLLEENKSCIEWLNKQKKNSVIFVSLGSLALMEINEVIETALGLDSSKQQFLWVIRPGSVRGSEWIENLPKEFSKIISGRGYIVKWAPQKEVLSHPAVGGFWSHCGWNSTLESIGEGVPMICKPFSSDQMVNARYLECVWKIGIQVEGDLDRGAVERAVRRLMVEEEGEGMRKRAISLKEQLRASVISGGSSHNSLEEFVHYMRTL"}}, "data": [{"assay": "UGT enzyme reaction with quercetin (recombinant UGTs, HPLC)", "assay_type": "biochemical, Arabidopsis", "conditions": "quercetin glucosylated at 3-OH; 0.5 mM quercetin, 5 mM UDP-glucose, 30° C.", "description": "(§1) The assay mix (200 μl) contained 2 μg of recombinant protein, 100 mM Tris-HCl, pH 7.0, 5 mM UDP-glucose 1.4 mM 2-mercaptoethanol, and 0.5 mM of quercetin. The reaction was carried out at 30° C. for 1 h, and was quick-frozen and stored at −20° C. prior to the reverse-phase HPLC analysis\n(§2) Reverse-phase HPLC (SpectraSYSTEM HPLC systems and UV6000LP Photodiode Array Detector, ThermoQuest) analysis was carried using a Columbus 5μ C18 column (250×4.60 mm, PHENOMENEX). Quercetin glucosides were separated from the aglycone by a linear gradient of 10-75% acetonitrile in H2O (all solution contained 0.1% trifluoroacetic acid) at 1 ml/mm over 20 mm and monitored at 370 nm. Cytokinin glucosides were separated from their aglycone by a liner gradient of 10-100% methanol in H2O (for N6-isopentenyladenine (iP), N6-benzyladenine and kinetin) or 10-60% methanol in H2O (for trans-zeatin and dihydrozeatin) at 1 ml/min over 20 mm. All solution contained 0.25% acetic acid and 0.04% triethylamine, trifluoroacetic acid. The separation was monitored at 206 nm and 252 nm. The identity of the products was confirmed by comparison with authentic gluco sides.\n(§3) The activity of Arabidopsis recombinant UGTs towards quercetin was determined using the platform developed previously^15.", "units": {"Specific activity (nkat/mg protein) 3-O-glc": "nkat/mg protein"}, "values": [{"molecule": "B1", "Specific activity (nkat/mg protein) 3-O-glc": 0.16}, {"molecule": "B2", "Specific activity (nkat/mg protein) 3-O-glc": 11.58}, {"molecule": "B3", "Specific activity (nkat/mg protein) 3-O-glc": 0.02}, {"molecule": "B4", "Specific activity (nkat/mg protein) 3-O-glc": 0.11}, {"molecule": "B5", "Specific activity (nkat/mg protein) 3-O-glc": 0.31}, {"molecule": "B6", "Specific activity (nkat/mg protein) 3-O-glc": 0.41}, {"molecule": "B7", "Specific activity (nkat/mg protein) 3-O-glc": 0.08}]}, {"assay": "UGT enzyme reaction with quercetin (recombinant UGTs, HPLC)", "assay_type": "biochemical, Arabidopsis", "conditions": "quercetin glucosylated at 3′-OH; 0.5 mM quercetin, 5 mM UDP-glucose, 30° C.", "description": "as §1, §2, §3", "values": [{"molecule": "B1", "Specific activity (nkat/mg protein) 3′-O-glc": "0.03 nkat/mg protein"}, {"molecule": "B2", "Specific activity (nkat/mg protein) 3′-O-glc": "— (Activity lower than 0.02 nkat/mg protein has been considered as trace activity and is not shown in the Table.)"}, {"molecule": "B3", "Specific activity (nkat/mg protein) 3′-O-glc": "— (Activity lower than 0.02 nkat/mg protein has been considered as trace activity and is not shown in the Table.)"}, {"molecule": "B4", "Specific activity (nkat/mg protein) 3′-O-glc": "— (Activity lower than 0.02 nkat/mg protein has been considered as trace activity and is not shown in the Table.)"}, {"molecule": "B5", "Specific activity (nkat/mg protein) 3′-O-glc": "— (Activity lower than 0.02 nkat/mg protein has been considered as trace activity and is not shown in the Table.)"}, {"molecule": "B6", "Specific activity (nkat/mg protein) 3′-O-glc": "0.19 nkat/mg protein"}, {"molecule": "B7", "Specific activity (nkat/mg protein) 3′-O-glc": "— (Activity lower than 0.02 nkat/mg protein has been considered as trace activity and is not shown in the Table.)"}]}, {"assay": "UGT enzyme reaction with quercetin (recombinant UGTs, HPLC)", "assay_type": "biochemical, Arabidopsis", "conditions": "quercetin glucosylated at 4′-OH; 0.5 mM quercetin, 5 mM UDP-glucose, 30° C.", "description": "as §1, §2, §3", "values": [{"molecule": "B1", "Specific activity (nkat/mg protein) 4′-O-glc": "— (Activity lower than 0.02 nkat/mg protein has been considered as trace activity and is not shown in the Table.)"}, {"molecule": "B2", "Specific activity (nkat/mg protein) 4′-O-glc": "— (Activity lower than 0.02 nkat/mg protein has been considered as trace activity and is not shown in the Table.)"}, {"molecule": "B3", "Specific activity (nkat/mg protein) 4′-O-glc": "— (Activity lower than 0.02 nkat/mg protein has been considered as trace activity and is not shown in the Table.)"}, {"molecule": "B4", "Specific activity (nkat/mg protein) 4′-O-glc": "0.16 nkat/mg protein"}, {"molecule": "B5", "Specific activity (nkat/mg protein) 4′-O-glc": "0.25 nkat/mg protein"}, {"molecule": "B6", "Specific activity (nkat/mg protein) 4′-O-glc": "0.76 nkat/mg protein"}, {"molecule": "B7", "Specific activity (nkat/mg protein) 4′-O-glc": "— (Activity lower than 0.02 nkat/mg protein has been considered as trace activity and is not shown in the Table.)"}]}, {"assay": "UGT enzyme reaction with quercetin (recombinant UGTs, HPLC)", "assay_type": "biochemical, Arabidopsis", "conditions": "quercetin glucosylated at 7-OH; 0.5 mM quercetin, 5 mM UDP-glucose, 30° C.", "description": "as §1, §2, §3", "values": [{"molecule": "B1", "Specific activity (nkat/mg protein) 7-O-glc": "0.24 nkat/mg protein"}, {"molecule": "B2", "Specific activity (nkat/mg protein) 7-O-glc": "— (Activity lower than 0.02 nkat/mg protein has been considered as trace activity and is not shown in the Table.)"}, {"molecule": "B3", "Specific activity (nkat/mg protein) 7-O-glc": "0.08 nkat/mg protein"}, {"molecule": "B4", "Specific activity (nkat/mg protein) 7-O-glc": "0.14 nkat/mg protein"}, {"molecule": "B5", "Specific activity (nkat/mg protein) 7-O-glc": "— (Activity lower than 0.02 nkat/mg protein has been considered as trace activity and is not shown in the Table.)"}, {"molecule": "B6", "Specific activity (nkat/mg protein) 7-O-glc": "0.19 nkat/mg protein"}, {"molecule": "B7", "Specific activity (nkat/mg protein) 7-O-glc": "0.12 nkat/mg protein"}]}]}
